Measurements from the Human Domainome abundance scans (Beltran et al. 2025).

B1: Tripartite motif-containing protein 44, residues 174 to 218; numbered along this chain, Q96DX7 (parent)
chain: VAKRKCPDHGLDLSTYCQEDRQLICVLCPVIGAHQGHQLSTLDEA

Variants of: B1
Assay: abundance fitness (aPCA) (normalised: wild type 0, dead -1); higher = more abundant; growth selection in yeast, the domain comes from the species named
Conditions: Homo sapiens

Abundance fitness: each site, then its substitutions
I24: K -0.138, S -0.31, M -0.041, F -0.173, A -0.121, R -0.171, H -0.312, T -0.052, C -0.043, E -0.457, Y -0.262, L -0.068, V -0.051, N -0.407, D -0.427
Q18: E 0.008, A -0.021, R -0.043, T -0.06, D 0.009, F -0.109, L -0.061, H 0.035, K 0.037, Y 0.08, I -0.058, V -0.086, S -0.015, W -0.189, P -0.038, G -0.111, C -0.041, M -0.01, N -0.01
E19: M -0.108, A -0.045, R -0.098, G -0.093, T -0.01, H -0.032, P -0.198, L -0.081, W -0.153, F -0.097, Q -0.062, N -0.033, I -0.063, D 0.045, S -0.048, V -0.06, Y -0.082, C -0.063
D12: L -0.166, R -0.214, C -0.366, S -0.113, Q -0.116, F -0.15, M -0.048, W -0.141, E 0.003, A -0.117, G -0.098, Y -0.132, I -0.016, P -0.033, T -0.071, H 0.017, K -0.082, N -0.072
G10: T -0.347, Y -0.125, S -0.064, P -0.776, K -0.106, M -0.078, W -0.311, C -0.143, L -0.116, V -0.519, E -0.074, R -0.147, I -0.445, Q -0.027, N 0.118, F -0.206, H 0.002
P7: V -0.25, K -0.342, R -0.168, Q 0.038, F -0.321, L -0.124, N -0.565, W -0.191, T 0.065, D -0.481, A -0.013, I -0.092, G -0.169, C -0.141, M -0.036, E -0.446, S -0.089, Y -0.226
T15: S -0.03, D -0.006, N 0.014, Q 0.039, K 0.048, G -0.101, P -0.544, F -0.382, W -0.2, R -0.054, I -0.137, H -0.033, L -0.196, M -0.106, V -0.198, A -0.085, Y 0.001, C -0.153
L13: G -0.282, Q -0.009, V -0.082, T -0.079, K -0.204, C -0.034, W -0.175, I -0.154, F -0.186, N -0.296, S -0.166, H -0.339, Y -0.147, M -0.031, E -0.123, R -0.1, P -0.276
H9: P -1.15, E -0.863, W -1.03, G -0.91, T -0.919, Q -0.964, K -0.995, R -0.975, N -0.838, Y -0.791, C -0.103, S -1.02, M -0.901, V -0.986, F -1.24, D -0.981, A -1, I -0.891
Y16: F -0.069, I 0.127, E -0.033, V -0.052, W -0.039, N -0.167, A -0.266, C -0.132, M -0.011
